Measurements from publication PMC10165876.

Legend:
[1] = biological target: NKp46–Ig (ACROBiosystems), used for MST and BLI (human) (UniProt O76036); assay: MST
[2] = biological target: MYC-tagged NKp46 (extracellular domain) (human) (UniProt O76036); assay: MST

Substance | Kd [1] | Kd [2]
influenza haemagglutinin, His-tagged (natural protein) | 1460 nM | 
CRT P domain fused to the Fc region of human Ig (Fc fusion) |  | 41.2 µM
